This sample holds only a part of the variants without activity.
B1: TPR 5TU (parent)
chain: GGAUCUUCUCGAUCUAACAAAAAAGACAAAUCUGCCACAAAGCUUGAGAGCAUCUUCGGAUGCAGAGGCGGCAGCCUUCGGUGGCGCGAUAGCGCCAACGUUCUCAACUAUGACACGCAAAACGCGUGCUCCGUUGAAUGGAGUUUAUCAUG

Variants of: B1
Experiment: polymerase ribozyme fitness, log enrichment relative to wild type (log ratio); higher = more active; in vitro selection for triplet polymerase activity
Outline: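 A single round of triplicate in vitro selection, including frozen incubation at −7 °C, was applied to PCR-built, transcribed mutant libraries of each subunit of a heterodimeric triplet polymerase ribozyme. Illumina sequencing of input and output libraries retained genotypes with ≥10 input reads and ≥1 read per output. Fitness is the base-2 logarithm of genotype enrichment divided by wild-type enrichment, from inverse-variance-weighted replicate averages.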

Going from A39C C57G A89U A97G to C32G C57U G80C G86C G152U, the “polymerase ribozyme fitness (log ratio)” value falls from -3.41 to no more than -4.2.

Compared with A20U A23C A47G U77G G84C A97U C118U, C18U A40G is higher in “polymerase ribozyme fitness (log ratio)” value: no more than -4.2 for the first, -2.32 for the second.

Going from A41U C85G G126A to G25A A30G A41U G50A C87U, the “polymerase ribozyme fitness (log ratio)” value falls from -2.76 to no more than -4.2.

Compared with C36A A150U, U45A G65A U82A A106U is higher in “polymerase ribozyme fitness (log ratio)” value: -4.01 for the first, -0.414 for the second.

U9C G84A C103U and A16U A64U A66C C93G cannot be ordered by “polymerase ribozyme fitness (log ratio)” value: no more than -4.2 for the first, no more than -4.2 for the second.

First: A37C A41C C72A C93U C125U
Second: A52G G83U C96A U101C G124A U145A C149U
The “polymerase ribozyme fitness (log ratio)” value of the first is lower: no more than -4.2 for the first, -2.95 for the second.

First: C14U G143A
Second: G67U C79G
The “polymerase ribozyme fitness (log ratio)” value of the first is higher: -1.26 for the first, no more than -4.2 for the second.

First: C54U G83U
Second: C35A C76A
The “polymerase ribozyme fitness (log ratio)” value of the first is higher: -0.319 for the first, -4.08 for the second.

Compared with G140U U144C, U53A U55A C96A U127C A138U is lower in “polymerase ribozyme fitness (log ratio)” value: -3.28 for the first, no more than -4.2 for the second.

Compared with A17C C76U C93G U102G C105A, U146C A150U is higher in “polymerase ribozyme fitness (log ratio)” value: no more than -4.2 for the first, 0.851 for the second.

First: A20C C103G
Second: U6C C85G
The “polymerase ribozyme fitness (log ratio)” value of the first is higher: -1.28 for the first, -2.95 for the second.

C5G A41C G46C C57G A60U G68C U135A G141A and G25C A39U U44C A91G C95U cannot be ordered by “polymerase ribozyme fitness (log ratio)” value: no more than -4.2 for the first, no more than -4.2 for the second.

Compared with A107G G143U, A23C G84U A106U G117U C118U C123U A142G is lower in “polymerase ribozyme fitness (log ratio)” value: -3.81 for the first, no more than -4.2 for the second.

Compared with C69U C93U, C14U U56A G74A C85A C87A C125U G143C A150U G152U is lower in “polymerase ribozyme fitness (log ratio)” value: -2.33 for the first, no more than -4.2 for the second.

Compared with U4G A24C G84U G86U C108U A122G U151C, A52C C118U G143A U144C is higher in “polymerase ribozyme fitness (log ratio)” value: no more than -4.2 for the first, -3.94 for the second.

Compared with C57U C96G, G42A G59A G74U C96G A137G is lower in “polymerase ribozyme fitness (log ratio)” value: -0.76 for the first, no more than -4.2 for the second.

Going from G100U A142C to A19C A52U, the “polymerase ribozyme fitness (log ratio)” value rises from -4.17 to -1.43.

First: U31C U55A A97G
Second: C10A
The “polymerase ribozyme fitness (log ratio)” value of the first is higher: 1.27 for the first, -2.83 for the second.

First: C87U A120U C123G
Second: A73G A122U G126U
The “polymerase ribozyme fitness (log ratio)” value of the first is lower: -1.06 for the first, -0.405 for the second.

Compared with U4A A12U G84A A89G, C5U A47C G59A C87U C93U is lower in “polymerase ribozyme fitness (log ratio)” value: -0.965 for the first, -3.16 for the second.

A26U U55G G86C C96U A97C C99A U102G and C10U A22G A49G A142C cannot be ordered by “polymerase ribozyme fitness (log ratio)” value: no more than -4.2 for the first, no more than -4.2 for the second.

Compared with C38U G50A, A12U C87U is higher in “polymerase ribozyme fitness (log ratio)” value: -2.15 for the first, -1.1 for the second.

Compared with G25U U61G A66C C87U A137G, A16U A41G is higher in “polymerase ribozyme fitness (log ratio)” value: no more than -4.2 for the first, -1.88 for the second.

Compared with A39G G84U U127A, G11A A21U G83U G117U is higher in “polymerase ribozyme fitness (log ratio)” value: no more than -4.2 for the first, -2.13 for the second.

First: A41U C105G
Second: G46U G83A G143C
The “polymerase ribozyme fitness (log ratio)” value of the first is higher: -1.73 for the first, -4.16 for the second.

Going from G68A G94C to C36G G80U C85U C87A U109G U139C A142G, the “polymerase ribozyme fitness (log ratio)” value falls from -4.03 to no more than -4.2.

Going from U44A G117A U135G to A3U A49G G84C, the “polymerase ribozyme fitness (log ratio)” value rises from no more than -4.2 to -3.89.

U15C A37U G46U G84U U148C and A17G U45G G80U cannot be ordered by “polymerase ribozyme fitness (log ratio)” value: no more than -4.2 for the first, no more than -4.2 for the second.

Going from A66G C87U to G11A U13C C36U A49U A60U, the “polymerase ribozyme fitness (log ratio)” value falls from -3.68 to -4.19.

First: C36U G143A
Second: A60C U61A C69G G74A U146G A150C
The “polymerase ribozyme fitness (log ratio)” value of the first is higher: -2.3 for the first, no more than -4.2 for the second.

A26G A37G A40G G58U G65U G74C G88C U101C U151A and U13A A17G A49C A107G cannot be ordered by “polymerase ribozyme fitness (log ratio)” value: no more than -4.2 for the first, no more than -4.2 for the second.

Compared with A47U U56A A122G U127C, A91U C93A A122U G143C is lower in “polymerase ribozyme fitness (log ratio)” value: -2.55 for the first, no more than -4.2 for the second.

A21C C43A and A73U C108A A110C G133A cannot be ordered by “polymerase ribozyme fitness (log ratio)” value: no more than -4.2 for the first, no more than -4.2 for the second.

First: C51U A66C G74A U90G U111G
Second: A41U G136A
The “polymerase ribozyme fitness (log ratio)” value of the first is lower: no more than -4.2 for the first, 0.0389 for the second.

C57G C75U G86A A91C and A39C G48C G88U A97G U144G cannot be ordered by “polymerase ribozyme fitness (log ratio)” value: no more than -4.2 for the first, no more than -4.2 for the second.

Going from A52G G94C U102C C131U to A12G U33C A73G U130G, the “polymerase ribozyme fitness (log ratio)” value falls from -1.64 to -3.56.

First: A60G C95A U101C
Second: C8U C57U G71C G86A U104A
The “polymerase ribozyme fitness (log ratio)” value of the first is higher: 0.139 for the first, no more than -4.2 for the second.

First: G59A A142G
Second: C38U A52G G70U C85U G117U
The “polymerase ribozyme fitness (log ratio)” value of the first is higher: -0.65 for the first, -3.27 for the second.

Compared with C85U A147G, C8A A30U G71A U82G C95A C103G U134A G141U is lower in “polymerase ribozyme fitness (log ratio)” value: -1.25 for the first, no more than -4.2 for the second.

Going from C18A C85A G112C C116U to A21C A49U C54U C85G G117A G124U, the “polymerase ribozyme fitness (log ratio)” value rises from no more than -4.2 to -3.06.

G11A C27U A49G C96A C118U U145A and C69G G83C are within 0.2 log units of each other in “polymerase ribozyme fitness (log ratio)” value: -4.19 for the first, -4.05 for the second.

Going from U9C C43G G65A G67C C95A to C18U A19U A24G G74U C79U, the “polymerase ribozyme fitness (log ratio)” value falls from -4.09 to no more than -4.2.

From the RNAGym collection of RNA variant scans (doi:10.1073/pnas.2313332121)
